The chains are these.
B1: LINE1-full (parent)
chain: UACGUAGGUGGUUUUCCCCUGAUAGUGCUAAGGGGGCCUGGAAGUUUGGACUGGGCAGAGCUCAACACAGCGUGGCAAAGUGGCUGUGGCUAGACUGCCUCUCUGGAUUCCUCGUCACUCAGCAGGGCAUCUCUGAGAGAAAUGCC

The data set covers variants of B1. In words: self-cleavage, relative activity (ratio to wild type); higher = more cleavage; in vitro, sequencing; the parent is a self-cleaving ribozyme.
Consider A50U U100C, for which the self-cleavage came out at 0.81.
The same measure for A50U G89A: 0.02.
Regarding U52A A69G, the self-cleavage came out at 0.71.
Consider C51U G127A, for which the self-cleavage worked out at 1.35.
The same measure for A50U U119A: 0.83; for A50U U119C: 1.47.
Consider U47G A67G, for which the self-cleavage turned out to be 0.06.
The same measure for C51A U109C: 1.35.
Next, A50G U91C: 0.35; A50G G125A: 0.39; U47C U134C: 1.74.
The same measure for C51U A78U: 2.19; for C51U A78G: 1.09.
Consider U47C C61U, for which the self-cleavage was 0.05.
The same measure for U47G U143C: 1.31; for U52A A65U: 0.21.
Next, U52A A65G: 0.04.
The same measure for U52A A79G: 1.09.
With U47G A59U, the self-cleavage was determined as 1.
The same measure for U47C G54A: 0.59.
The same measure for U47C G54U: 1.48.
The same measure for G48A A129U: 1.13.
With A50U U62A, the self-cleavage worked out at 0.01.
Next, G49U A142G: 0.85.
Regarding G48U U109A, the self-cleavage turned out to be 1.42.
The same measure for A50U C111U: 0.77.
Next, A50G G53U: 0; A50G G53A: 1.09.
For the variant A50C A117U, the self-cleavage was 0.92.
The same measure for A50G C61U: 0.05; for G49A A59G: 0.02.
The same measure for U52A A94G: 0.33.
The same measure for U52A A94U: 0.52; for G49C: 1.15.
As to G49U, the self-cleavage was 0.94.
The same measure for G49A: 1; for G48A U130C: 1.53.
For U47C U143A, the self-cleavage was 1.63.
In the case of G48A U91C, the self-cleavage was found to be 0.09.
Regarding A50U C120A, the self-cleavage was determined as 1.46.
U47C U115A: the self-cleavage is 1.75.
For G48U U52A, the self-cleavage came out at 0.81.
Next, U47G: 1.14.
The same measure for A50C A67G: 0.62; for U47C G97C: 1.3; for U47C G97A: 0.59.
The same measure for U47G A142G: 1.33; for U47G U102A: 1.34.
For A50G U100C, the self-cleavage was 0.98.
In the case of G49C A140G, the self-cleavage came to 1.51.
On to A50G C113A, for which the self-cleavage came out at 0.35.
With A50U U73A, the self-cleavage was determined as 0.89.
Next, A50G U102G: 0.51.
The same measure for C51G U62C: 0.08; for U47C G53U: 1.3.
The same measure for G48A U81C: 1.14.
With C51U A124U, the self-cleavage came out at 2.12.
The same measure for G49A A69G: 0.36; for A50G U112A: 1.02; for C51U A117C: 1.28.
In the case of C51U A117G, the self-cleavage was determined as 1.5.
Next, A50U A140U: 0.92; G49A A142G: 0.98.
The same measure for A50G G139U: 0.37; for U47G U91A: 1.93; for G49U U143C: 0.84.
The same measure for C51A G53A: 1.92; for G49A A117U: 1.05; for C51U A57G: 0.17.
For the variant A50U U96A, the self-cleavage turned out to be 0.03.
A50U U96G: the self-cleavage turned out to be 0.3.
The same measure for A50U U96C: 0.1; for C51U G89U: 0.03; for C51G U96A: 0.05.
Regarding A50G A57G, the self-cleavage was 0.32.
On to A50G A57U, for which the self-cleavage came out at 0.14.
Next, U47G U100A: 0.42; A50G G88A: 0.06.
The same measure for G48A U102A: 1.71; for G48A G72A: 0.96; for A50U A136U: 1.21.
Next, A50G A69C: 0; U47C G74C: 1.61.
Turning to U47G U109C, the self-cleavage worked out at 2.63.
In the case of G48A A79G, the self-cleavage stood at 1.43.
In the case of A50G U52A, the self-cleavage is 0.91.
The same measure for A50G A79U: 1.09; for U47C C76U: 1.77; for A50G A117G: 1.97.
The same measure for A50G A117U: 0.91; for C51U A67C: 0.05.
Next, U47G C68U: 0.06; U47C C128A: 0.73; A50G A77U: 0.73.
For A50G A77G, the self-cleavage came to 1.42.
The same measure for G48A U112A: 0.83; for G48A U112C: 1.45.
As for A50U, the self-cleavage is 1.
The same measure for A50G: 0.9; for A50C: 1.34; for A50C U91C: 0.48.
Regarding A50G G60A, the self-cleavage came to 0.04.
The same measure for U47C G72U: 2.51; for U47C C95A: 0.09; for C51A A67U: 0.1.
Next, C51A A67G: 0.63; G48U U119C: 1.95.
Take A50G C63A: the self-cleavage came to 0.02.
The same measure for C51U: 1.3.
Next, C51A: 1.31.
For the variant C51G, the self-cleavage worked out at 1.63.
Next, A50U G80C: 0.82; A50G A138U: 0.95; A50U C63U: 0.2.
In the case of A50U C63A, the self-cleavage stood at 0.
Next, C51A U96A: 0.11.
On to A50G C128U, for which the self-cleavage is 0.36.
The same measure for A50C U143C: 0.82; for A50G A78C: 0.
Next, C51A A57G: 0.48; U52A A121G: 1.74.
The same measure for U47G U104C: 1.48; for G48U A121G: 0.99.
For G48A U85C, the self-cleavage came to 0.1.
As for G48A U85A, the self-cleavage turned out to be 0.05.
The same measure for A50U G55A: 0.08; for U52A A129G: 1.3; for G49A A124G: 0.55.
Next, A50G U119C: 1.11.
Next, C51A A107U: 1.3; G49A U130C: 1.55; G48A U109A: 2.18.
For the variant U47G A141G, the self-cleavage worked out at 1.45.
Next, C51A A140G: 1.04; A50G G89A: 0.06.
The same measure for A50C U73G: 0.79; for U47G U73A: 1.18.
The same measure for A50G A107G: 1.1; for G49A A50G: 0.82; for C51A C111U: 1.07.
U52A A92G: the self-cleavage was found to be 0.11.
Next, G48C A142G: 1.38.
With G49A G54A, the self-cleavage amounted to 0.18.
Next, A50G U109A: 0.84; A50G U109C: 0.96; A50G A142C: 1.07.
Regarding A50G A142G, the self-cleavage was found to be 0.9.
The same measure for A50U A64G: 0.16; for U47G A129G: 1.31.
Regarding U47C G89U, the self-cleavage was 0.04.
The same measure for A50U U112A: 1.15; for G49U A78G: 0.91.
The same measure for A50G U96C: 0.1; for A50G U96A: 0.04; for C51U U85C: 0.19.
Consider A50U A138U, for which the self-cleavage came out at 1.16.
The same measure for A50U A138C: 1.21.
With G48U U134C, the self-cleavage is 1.14.
Consider A50U C118U, for which the self-cleavage came out at 1.02.
Next, A50U A77U: 0.83; A50U A77G: 0.43; A50U U108G: 1.11.
The same measure for C51U U96C: 0.12; for C51U A79G: 1.53.
With G49A A67G, the self-cleavage came out at 0.56.
The same measure for A50C U130C: 1.51; for A50G C90G: 0.06.
